{
  "source": "paper PMC2752310",
  "binders": {"B1": {"name": "His-6-tagged TnsE, purified (natural protein)", "chain": "MVRLATFNDNVQVVHIGHLFRNSGHKEWRIFVWFNPMQERKWTRFTHLPLLSRAKVVNSTTKQINKADRVIEFEASDLQRAKIIDFPNLSSFASVRNKDGAQSSFIYEAETPYSKTRYHIPQLELARSLFLINSYFCRSCLSSTALQQEFDVQYEVERDHLEIRILPSSSFPKGALEQSAVVQLLVWLFSDQDVMDSYESIFRHYQQNREIKNGVESWCFSFDPPPMQGWKLHVKGRSSNEDKDYLVEEIVGLEINAMLPSTTAISHASFQEKEAGDGSTQHIAVSTESVVDDEHLQLDDEETANIDTDTRVIEAEPTWISFSRPSRIEKSRRARKSSQTILEKEEATTSENSNLVSTDEPHLGGVLAAADVGGKQDATNYNSIFANRFAAFDELLSILKTKFACRVLFEETLVLPKVGRSRLHLCKDGSPRVIKAVGVQRNGSEFVLLEVDASDGVKMLSTKVLSGVDSETWRNDFEKIRRGVVKSSLNWPNSLFDQLYGQDGHRGVNHPKGLGELQVSREDMEGWAERVVREQFTH"}},
  "target": "purified β protein (β clamp) (UniProt P0A988)",
  "experiment": "SPR",
  "data": [
    {"binder": "B1", "values": [
      {"measurement": "Kd", "result": 2.44, "unit": "µM"}
    ]}
  ]
}
